Data: PMC3948114

B1: unnamed (parent)
chain 1: HMGGQDKPFLSAWPSAVVPRGGHVTLRCHYRHRFNNFMLYKEDRIHIPIFHGRIFQESFNMSPVTTAHAGNYTCRGSHPHSPTGWSAPSNPVVIMVTGNHRKPSLLAHPGPLVKSGERVILQCWSDIMFEHFFLHKEGISKDPSRLVGQIHDGVSKANFSIGPMMLALAGTYRCYGSVTHTPYQLSAPSDPLDIVVTGPYEKPSLSAQPGPKVQAGESVTLSCSSRSSYDMYHLSREGGAHERRLPAVRKVNRTFQADFPLGPATHGGTYRCFGSFRHSPYEWSDPSDPLLVSVTGNPSSSWPSPTEPSSKSGNPRHLHILIGTSVVIILFILLLFFLLHLWCSNKKNAAVMDQEPAGNRTANSEDSDEQDPEEVTYAQLDHCVFTQRKITRPSQRPKTPPTDTILYTELPNAKPRSKVVSCP
chain 2: not shown
chain 3: not shown
chain 4: TSTLQEQIDW

Variants of: B1
Assay: tetramer staining of transfected HEK293 cells
Conditions: with partner chain of the complex shown; 0.2 μg tetramer; read off a plot

| Variant | response (% of *001 TW10) |
| --- | --- |
| chain 1 A167G | 10 |
| chain 1 E282A | 26 |
| chain 1 E282Q | 130 |
| chain 1 L166A | 90 |
| chain 1 L166V | 46 |
